In article PMC11406360, “The enzymatic oxygen sensor cysteamine dioxygenase binds its protein substrates through their N-termini” (The Journal of Biological Chemistry, 2024):
Where “and” joins values, the source holds several entries; their conditions need not be identical. Equal entries are not always repeated.

What was measured:
[1] = target: T1, ADO-H193D, biotinylated, for SPR (human, UniProt Q96SZ5 1-270, H193D, biotin (N terminally biotinylated)); assay: SPR; Biacore T200; biotinylated ADO immobilized on a Biotin CAP chip (∼2500 to 3000 RU), peptide/protein substrates injected; 4 °C; 20 mM Hepes pH 7.5, 500 mM NaCl, 10 mM DTT, 0.1% tween-20; 50 μl/min; multicycle, equilibrium steady state affinity 1:1 binding model; conditions: both partners purified
T1 construct: 2-aminoethanethiol (cysteamine) dioxygenase (ADO), human, UniProt Q96SZ5, full length, H193D; Mutant with impaired iron retention (reduced metal occupancy by ICP-MS); source: E. coli Rosetta2(DE3), pQE80L-Navi construct, site-directed mutagenesis, purified (Ni-NTA, SEC); not shown: biotinylation tag (from the vector pQE80L-Navi), N-terminal, kept
T1 sequence (looked up): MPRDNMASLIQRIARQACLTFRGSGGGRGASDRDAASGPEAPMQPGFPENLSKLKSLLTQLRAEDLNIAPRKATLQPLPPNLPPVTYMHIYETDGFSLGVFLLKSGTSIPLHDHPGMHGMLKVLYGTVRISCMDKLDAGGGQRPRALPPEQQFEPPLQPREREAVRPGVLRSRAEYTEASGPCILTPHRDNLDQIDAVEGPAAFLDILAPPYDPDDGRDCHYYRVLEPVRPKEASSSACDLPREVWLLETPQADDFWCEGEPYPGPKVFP

[2] = target: cobalt substituted ADO (ADO-Co^2+), biotinylated, for SPR (human) (UniProt Q96SZ5); assay: SPR; as a1, but single cycle kinetics (SCK) mode fit to a 1:1 binding model; ADO-Co^2+ immobilized
[3] = target: T2, 2-aminoethanethiol (cysteamine) dioxygenase (ADO), biotinylated, for SPR (human, UniProt Q96SZ5 1-270, biotin (N terminally biotinylated; 0.2 mM biotin added at induction)); assay: SPR; before treatment
T2 chain: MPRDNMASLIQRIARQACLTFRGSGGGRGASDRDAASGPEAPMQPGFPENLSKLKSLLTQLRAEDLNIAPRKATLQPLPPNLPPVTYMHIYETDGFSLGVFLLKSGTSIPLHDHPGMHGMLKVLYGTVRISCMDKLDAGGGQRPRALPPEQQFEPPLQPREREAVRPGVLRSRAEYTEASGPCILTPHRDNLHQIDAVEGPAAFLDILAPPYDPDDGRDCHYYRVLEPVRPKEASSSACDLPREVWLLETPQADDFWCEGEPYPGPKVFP

[4] = target: T2, 2-aminoethanethiol (cysteamine) …; assay: SPR; post-reconstitution with Fe2+
[5] = target: T2, 2-aminoethanethiol (cysteamine) …; assay: SPR; post-metal removal (phenanthroline/EDTA)
[6] = target: T3, cobalt substituted ADO (ADO-Co^2+), biotinylated, for SPR (human, UniProt Q96SZ5 1-270, biotin (N terminally biotinylated)); assay: SPR; single cycle kinetics
T3 chain: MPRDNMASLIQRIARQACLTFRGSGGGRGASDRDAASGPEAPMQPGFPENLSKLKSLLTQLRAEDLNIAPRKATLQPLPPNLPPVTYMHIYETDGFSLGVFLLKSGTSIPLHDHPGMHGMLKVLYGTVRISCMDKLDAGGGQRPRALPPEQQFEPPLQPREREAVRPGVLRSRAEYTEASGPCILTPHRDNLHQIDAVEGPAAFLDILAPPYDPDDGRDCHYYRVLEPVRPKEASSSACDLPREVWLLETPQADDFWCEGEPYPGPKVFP

[7] = target: ADO-H193D, biotinylated, for SPR (human, UniProt Q96SZ5 1-270, H193D, biotin (N terminally biotinylated)); assay: SPR
[8] = substrate: CC(C)C[C@H](NC(=O)CNC(=O)[C@H](CCCCN)NC(=O)[C@@H](N)CS)C(=O)N[C@@H](C)C(=O)N[C@@H](C)C(=O)N[C@@H](CC(C)C)C(=O)N1CCC[C@H]1C(=O)N[C@@H](Cc1c[nH]cn1)C(=O)N[C@@H](CO)C(=O)N[C@@H](CS)C(=O)N[C@@H](CC(C)C)C(=O)N[C@@H](CCC(=O)O)C(=O)N[C@@H](CCCNC(=N)N)C(N)=O; assay: LC-MS enzyme activity assay (Nt-cys sulfinylation by ADO); format: biochemical, human; conditions: other: Michaelis-Menten, stopped LC-MS assay, atmospheric O2, three independent experiments, pH 7.5
Experimental: (§1) […] Otherwise stated, the reaction buffer contained 50 mM Tris pH 7.5, 50 mM NaCl, and 5 mM TCEP. The reactions were quenched by mixing the sample 1:10 (peptide) or 1:5 (protein) with 1% formic acid (v/v).
(§2) Peptide and protein samples were injected onto a Chromolith RP-18 Endcapped HPLC Columns (100–2 mm; Merck) and Discovery BIO Wide Pore C5 HPLC Column (Supelco), respectively, heated to 40 °C and eluted at 0.3 ml/min using a gradient of 95% deionized water supplemented with 0.1% (v/v) formic acid to 95% acetonitrile. Oxidation was monitored by an ultra high-performance liquid chromatography MS using ExionLC AD (Sciex) and SelexION (Sciex) mass spectrometer operated in a positive electrospray TOF (+ESI-TOF) mode. Instrument parameters, data acquisition and data processing were controlled by Analyst software (Sciex; https://sciex.com/products/software/analyst-software). The peptide data processing was performed using Skyline software (MacCoss Lab Software; https://skyline.ms/project/home/software/Skyline/begin.view) ([38]). All figures and parameters were generated using GraphPad Prism 9 (GraphPad; https://www.graphpad.com/features).

[9] = substrate: CC(C)C[C@H](NC(=O)CNC(=O)[C@H](C)NC(=O)[C@@H](N)CS)C(=O)N[C@@H](C)C(=O)N[C@@H](C)C(=O)N[C@@H](CC(C)C)C(=O)N1CCC[C@H]1C(=O)N[C@@H](Cc1c[nH]cn1)C(=O)N[C@@H](CO)C(=O)N[C@@H](CS)C(=O)N[C@@H](CC(C)C)C(=O)N[C@@H](CCC(=O)O)C(=O)N[C@@H](CCCNC(=N)N)C(N)=O; assay: as above; format: biochemical, human; conditions: other: Michaelis-Menten, stopped LC-MS assay, 37 °C, atmospheric O2; three independent experiments; pH 7.5; 37.0 °C
Experimental: as §1, §2

[10] = substrate: CC(C)C[C@H](NC(=O)[C@H](C)NC(=O)[C@H](CCCCN)NC(=O)[C@@H](N)CS)C(=O)N[C@@H](C)C(=O)N[C@@H](C)C(=O)N[C@@H](CC(C)C)C(=O)N1CCC[C@H]1C(=O)N[C@@H](Cc1c[nH]cn1)C(=O)N[C@@H](CO)C(=O)N[C@@H](CS)C(=O)N[C@@H](CC(C)C)C(=O)N[C@@H](CCC(=O)O)C(=O)N[C@@H](CCCNC(=N)N)C(N)=O; assay: as above; format: biochemical, human; conditions: other: Michaelis-Menten, stopped LC-MS assay, 37 °C, atmospheric O2; three independent experiments; pH 7.5; 37.0 °C
Experimental: as §1, §2

[11] = target: T2, 2-aminoethanethiol (cysteamine) …; assay: SPR

B1: native RGS5 peptide (first 14 amino acids of the methionine excised N terminus of RGS5) (peptide, UniProt O15539 2-15, looked up)
peptide: CKGLAALPHSCLER
notes: regulator of G-protein signaling 5 (RGS5), first 14 amino acids of the methionine excised N terminus: residues 2-15 with the initiating methionine denoted as 1; source: synthetic peptide (SPPS, HPLC purified)
fold weaker KD than with WT ADO [1]: ~13 fold | fold increase in binding affinity relative to native ADO [2]: 10 fold | Kd [3]: 370 nM | Kd [4]: 330 nM | Kd [5]: 320 nM | Kd [6]: 27 nM | Kd [7]: 3.3 µM

B2: native IL32 peptide (first 14 amino acids of the methionine excised N terminus of interleukin 32) (peptide, UniProt P24001 2-15, looked up)
peptide: CFPKVLSDDMKKLK
notes: interleukin 32 (IL32), first 14 amino acids of the methionine excised N terminus: residues 2-15 with the initiating methionine denoted as 1; source: synthetic peptide (SPPS, HPLC purified)
fold weaker KD than with WT ADO [1]: ~77 fold | fold increase in binding affinity relative to native ADO [2]: 10 fold

B3: ADO (Homo sapiens) (protein)
chain: MPRDNMASLIQRIARQACLTFRGSGGGRGASDRDAASGPEAPMQPGFPENLSKLKSLLTQLRAEDLNIAPRKATLQPLPPNLPPVTYMHIYETDGFSLGVFLLKSGTSIPLHDHPGMHGMLKVLYGTVRISCMDKLDAGGGQRPRALPPEQQFEPPLQPREREAVRPGVLRSRAEYTEASGPCILTPHRDNLHQIDAVEGPAAFLDILAPPYDPDDGRDCHYYRVLEPVRPKEASSSACDLPREVWLLETPQADDFWCEGEPYPGPKVFP
notes: Full-length human ADO (UniProt ID: Q96SZ5) was cloned; made in house; host or cells: Rosetta2(DE3) Escherichia coli
Km ([8]; 25 °C, 25.0 °C): 62 µM and 125 µM | kcat ([8]; 25 °C, 25.0 °C): 7 s⁻¹ and 19 s⁻¹ | kcat/Km ([8]; 25 °C, 25.0 °C): 1.1 x 10^5 s^-1M^-1 and 1.5 x 10^5 s^-1M^-1 | Km ([8]; 37 °C, 37.0 °C): 83 µM | kcat ([8]; 37 °C, 37.0 °C): 22 s⁻¹ | Km [9]: 1970 µM | kcat [9]: 100 s⁻¹ | kcat/Km [9]: 0.51 x 10^5 s^-1M^-1 | Km [10]: 33 µM | kcat [10]: 8 s⁻¹ | kcat/Km [10]: 2.4 x 10^5 s^-1M^-1

B4: RGS5-H10A (peptide)
chain: CKGLAALPASCLER
Kd [11]: 240 nM
